# Assay results reported in paper PMC5638582.
# Molecular target: Erv1 with a C-terminal histidine tag (Erv1-His) (S. cerevisiae) (UniProt P27882)
# Test: pull-down
# UniProt P27882, sequence (P27882 whole entry): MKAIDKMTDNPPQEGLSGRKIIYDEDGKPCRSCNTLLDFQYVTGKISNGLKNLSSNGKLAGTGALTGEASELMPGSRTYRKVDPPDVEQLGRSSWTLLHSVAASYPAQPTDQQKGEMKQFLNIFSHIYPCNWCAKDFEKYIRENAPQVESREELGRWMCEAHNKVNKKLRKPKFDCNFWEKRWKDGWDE
substance,measurement,value
"Osm1 (fumarate reductase), endogenous mitochondrial form (from UniProt P21375 33-501) (enzyme)",fraction copurified,10%
